Test results reported in patent US10487337B2, “Methods for monocot plant improvement” (Agresearch Limited, priority 2014, dated 2019).

T1: BZR1 (Arabidopsis thaliana, UniProt Q8S307)
T1 construct: expressed in transfected cells; host or cells: Nicotiana benthamiana leaves (Agrobacterium infiltration)
T1 sequence (Q8S307 1-336): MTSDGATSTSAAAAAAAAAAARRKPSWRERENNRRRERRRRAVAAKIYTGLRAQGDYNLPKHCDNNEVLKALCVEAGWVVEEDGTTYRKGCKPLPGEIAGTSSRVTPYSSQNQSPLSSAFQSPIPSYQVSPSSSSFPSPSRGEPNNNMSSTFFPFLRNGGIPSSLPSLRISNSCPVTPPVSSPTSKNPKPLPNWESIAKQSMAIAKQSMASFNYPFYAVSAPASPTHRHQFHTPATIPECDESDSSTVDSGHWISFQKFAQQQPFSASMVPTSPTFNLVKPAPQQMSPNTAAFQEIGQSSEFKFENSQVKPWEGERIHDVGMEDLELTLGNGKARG

T2: BZR1 (Arabidopsis thaliana, UniProt Q8S307)
T2 construct: expressed in transfected cells; host or cells: yeast strain MaV203
T2 sequence (Q8S307 with tags, fused parts or gaps): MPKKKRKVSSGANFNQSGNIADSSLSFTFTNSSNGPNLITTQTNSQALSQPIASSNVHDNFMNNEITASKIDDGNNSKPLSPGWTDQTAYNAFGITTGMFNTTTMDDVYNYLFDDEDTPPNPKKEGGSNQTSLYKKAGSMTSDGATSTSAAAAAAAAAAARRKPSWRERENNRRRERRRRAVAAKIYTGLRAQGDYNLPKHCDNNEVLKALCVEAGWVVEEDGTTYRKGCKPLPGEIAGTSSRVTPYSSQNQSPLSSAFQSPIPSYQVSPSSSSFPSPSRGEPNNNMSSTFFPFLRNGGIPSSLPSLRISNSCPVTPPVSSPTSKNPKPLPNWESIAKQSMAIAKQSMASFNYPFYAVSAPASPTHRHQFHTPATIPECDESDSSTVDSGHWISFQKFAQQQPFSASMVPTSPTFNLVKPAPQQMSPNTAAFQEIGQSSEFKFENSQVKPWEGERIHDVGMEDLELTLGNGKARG


How the values were obtained:
BZR1 [1] = target: T1, BZR1; assay: BiFC interaction with BZR1 in Nicotiana benthamiana leaves; assay type: cell-based; details: fully expanded leaves, co-expressed with cYFP-BZR1
Text: The binary BiFC-Gateway YFP vectors pDEST-VYNE(R)^GW (Venus aa 1-173) and pDEST-VYCE(R)^GW (Venus aa 156-239) with N-terminal fusions, were used to construct the following vectors; pDESTnYFP-BZR1, pDESTnYFP-NINJA, pDESTnYFP-PPD1, pDESTcYFP-BZR1, pDESTcYFP-PPD1, pDESTcYFP-PPD1Δppd, pDESTcYFP-PPD1Δtify and pDESTcYFP-PPD1Δjas*. For transient in planta expression of proteins interacting with PPD1 or BZR, NINJA and TPL were Gateway® sub-cloned into pRSh1, to construct pRSh1-NINJA and pRSh1-TPL. Plasmids for co-immunoprecipitation: A synthesised DNA construct encoding PPD1 with a 3×c-myc C-terminal fusion was sub-cloned into pRSh1 to produce pRSh1-PPD1-3×c-myc, while the NINJA cDNA sequence was sub-cloned into pB7FWG2,0 (Karimi et al 2002, Trends Plant Sci. 7, 193-195) to construct pB7FWG2-NINJA-GFP. When expressed these constructs produced proteins listed in sequences 60, 62, 70 71 72 73 74 75 76 77 78 79: including TOPLESS (TPL), NINJA, Bimolecular Fluorescence (BiFC) nYFP, BiFC cYFP, BiFC nYFP-NINJA, BiFC nYFP-BZR1, BiFC cYFP-PPD1, BiFC cYFP-NINJA, BiFC cYFP-BZR1, BiFC cYFP-PPD1-ppd, BiFC cYFP-PPD1-tify, BiFC cYFP-PPD1-jas*.
Transient BiFC experiments were performed using combinations of pDESTnYFP and pDESTcYFP plasmids, with or without plasmids for the expression of NINJA (pRSh1-NINJA) or TPL (pRSh1-TPL) and Agrobacterium-infiltration of Nicotiana benthamiana leaves. For infiltration Agrobacterium tumefaciens GV3101 strains containing the binary vectors were re-suspended from plates and prepared for transformation as described for the LUC assay. All YFP and expression strains were mixed in ratios of 1:1 (vol/vol) with the addition of strain P19 at 1/10th volume. Five leaf discs were sampled from each infiltrated leaf after 40 h. Two hours prior to sampling for microscopic fluorescence observations leaves were infiltrated with a 1 μg/ml DAPI solution to stain nuclei. YFP fluorescence and DAPI staining was detected using an Olympus Fluoview FV10i confocal laser scanning microscope. Each experiment was repeated twice.

BZR1 [2] = target: T2, BZR1; assay: Yeast two hybrid (Y2H) interaction with BZR1; assay type: binding
Text: The constructs for Y2H and BiFC assays were generated as follows. Arabidopsis DNA sequences encoding the open reading frames for; At4g14713 (PPD1) and truncation and deletion derivatives of PPD1: PPD1; PPD1Δppd (N-terminal truncation of sequences encoding aa 1-61), PPD1Δtify, (internal deletion of sequences encoding aa 154-186), PPD1Δjas*(C-terminal truncation of sequences encoding aa 229-313) (FIG. 5), At4g28910 (NINJA), At1g15750 (TPL), At1g75080 (BZR1), a synthetic PUAS-35S promoter, and sequences encoding GAL4DBD and c-myc fusion proteins were synthesised and sequence verified by GeneArt. Most sequences were supplied as clones in pENTR221 ready for Gateway cloning into yeast and plant expression vectors. The exception, a promoter sequence for in planta transcription activation assays, incorporating 5′ Xho1 and 3′ Nco1 restriction enzyme sites, was supplied cloned in pMA-RQ. Plasmids for the transient LUC reporter assay: A synthetic promoter with 5×UAS GAL4 DNA binding sites upstream of a −105 bp CaMV35S promoter was cloned into the XhoI-NcoI sites within a dual luciferase construct pNWA62, which contains an intron-containing Firefly Luciferase gene (LUC) and 35Spro::Renilla Luciferase (REN) as an internal standard, to construct pAML7. […]

Row | Molecule | interaction with BZR1 (BZR1 [1]) | interaction with BZR1 (BZR1 [2])
1 | nYFP-PPD1: BiFC fusion of PPD1 with the N-terminal Venus YFP fragment | no interaction was observed | 
2 | TPL: TOPLESS transcriptional co-repressor of Arabidopsis, SEQ ID NO: 60 (protein, Consensus sequence) MSSLSRELVFLILQFLDEEKFKETVHKLEQESGFFFNMKYFEDEVHNGNWDEVEKYLSGFTKVDDNRYSMKIFFEIRKQKYLEALDKHDRPKAVDILVKDLKVFSTFNEELFKEITQLLTLENFRENEQLSKYGDTKSARAIMLVELKKLIEANPLFRDKLQFPTLRNSRLRTLINQSLNWQHQLCKNPRPNPDIKTLFVDHSCGPPNGARAPSPVNNPLLGGIPKAGGFPPLGAHGPFQPTASPVPTPLAGWMSSPSSVPHPAVSAGAIALGGPSIPAALKHPRTPPTNASLDYPSADSEHVSKRTRPMGISDEVNLGVNMLPMSFSGQAHGHSPAFKAPDDLPKTVARTLSQGSSPMSMDFHPIKQTLLLVGTNVGDIGLWEVGSRERLVQKTFKVWDLSKCSMPLQAALVKEPVVSVNRVIWSPDGSLFGVAYSRHIVQLYSYHGGEDMRQHLEIDAHVGGVNDISFSTPNKQLCVITCGDDKTIKVWDAATGVKRHTFEGHEAPVYSVCPHYKENIQFIFSTALDGKIKAWLYDNMGSRVDYDAPGRWCTTMAYSADGTRLFSCGTSKDGESFIVEWNESEGAVKRTYQGFHKRSLGVVQFDTTKNRYLAAGDDFSIKFWDMDAVQLLTAIDGDGGLQASPRIRFNKEGSLLAVSGNENVIKIMANSDGLRLLHTFENISSESSKPAINSIAAAAAAAATSAGHADRSANVVSIQGMNGDSRNMVDVKPVITEESNDKSKIWKLTEVSEPSQCRSLRLPENLRVAKISRLIFTNSGNAILALASNAIHLLWKWQRNERNATGKATASLPPQQWQPASGILMTNDVAETNPEEAVPCFALSKNDSYVMSASGGKISLFNMMTFKTMATFMPPPPAATFLAFHPQDNNIIAIGMDDSTIQIYNVRVDEVKSKLKGHSKRITGLAFSNVLNVLVSSGADAQLCVWNTDGWEKQRSKVLPLPQGRPNSAPSDTRVQFHQDQAHFLVVHETQLAIYETTKLECMKQWAVRESLAPITHATFSCDSQLVYASFMDATVCVFSSANLRLRCRVNPSAYLPASLSNSNVHPLVIAAHPQEPNMFAVGLSDGGVHIFEPLESEGKWGVAPPAENGSASGAPTAPSVGASASDQPQR |  | direct interaction occurs
